Data as given in the Human Domainome abundance scans (Beltran et al. 2025).

B1: Dystrobrevin alpha, residues 235 to 294; numbered along this chain, Q9Y4J8 (parent)
chain: ENVFHPVECSYCHSESMMGFRYRCQQCHNYQLCQDCFWRGHAGGSHSNQHQMKEYTSWKS
B2: Myocardin, residues 363 to 406; numbered along this chain, Q8IZQ8 (parent)
chain: KPGPLPPNLDDLKVSELRQQLRIRGLPVSGTKTALMDRLRPFQD

Variants of: B1
Assay: abundance fitness (aPCA) (normalised: wild type 0, dead -1); higher = more abundant; growth selection in yeast, the domain comes from the species named
Conditions: Homo sapiens

Abundance fitness of substitutions, site by site:
E54: T 0.312; G -0.29
N48: A 0.007; K -0.248; R -0.182; T -0.042; E -0.167; F -0.274; C -0.063; Q -0.084; V 0.037; H -0.174; P 0.108; W -0.532; G -0.045; Y -0.318; M -0.149; I -0.177; L -0.22
G43: W -0.208; T -0.139; M -0.068; A -0.325; D 0.325; P -0.765; F -0.542; C -0.034; H -0.09; I -0.685; S 0.09; N 0.121; L -0.221; V -0.352; E 0.087
H41: V 0.122; P -0.192; L -0.038; G -0.312; F -0.044; D -0.296; I -0.284; S 0.037; E -0.09; C 0.013; A 0.013; R 0.067; K 0.089; Q 0.146; W -0.323; N 0.063; M -0.014; Y -0.127
K59: T 0.049; E -0.127; I -0.392; V -0.105; G 0.229; A 0.082; C -0.001; F -0.142; D 0.356; Q 0.126; H 0.074; L -0.013; Y -0.099; P -0.034; N 0.017
S57: V 0.005; H 0.124; N -0.291; A 0.085; T 0.008; Q -0.059; P 0.171; K -0.019; G -0.044; M 0.036; C 0.074; Y -0.395; L -0.165; R -0.152; E 0.058; W -0.192; F -0.391; I -0.11; D 0.071
S60: P -0.065; H 0.112; C -0.276; Q 0.216; G 0.064; A -0.446; D 0.335; I -0.519; N -0.216; V 0.034; L -0.196; R 0.134; F 0.02; Y -0.207
S47: I -0.25; N 0.029; C -0.103; V -0.199; M -0.322; Y -0.57; R -0.118; P -0.172; G -0.22; L -0.333; H -0.091; D 0.044; E -0.028; K 0.038; F -0.455; A -0.349; W -0.051; Q -0.031
Q51: W -0.517; F -0.536; N -0.095; H -0.319; L -0.153; T 0.042; Y 0.077; A -0.066; P -0.091; D 0.101; K 0.046; V -0.117; I 0.009; G -0.234; S 0.062; M -0.334; C -0.148
G40: W -0.352; T -0.366; S -0.229; V -0.266
M52: Y -0.18; W -0.449; N -0.764; F -0.005; Q -0.294; P -0.478; I -0.3; S -0.628; D -0.471; K -0.62; C -0.194; H -0.87; E -0.567; G -0.554; L -0.248; V -0.025; R -0.792
W58: Q -0.127; T 0.258; F -0.021; A 0.258; M 0.251; L 0.019; E 0.297; R 0.077; V 0.224; K 0.195; S 0.057; C 0.003; D 0.284; Y 0.142; N 0.232; H 0.105; G 0.192
A42: T -0.054; Y -0.381; G -0.026; E 0.081; H 0.05; I -0.372; P -0.421; D -0.253; L -0.285; K -0.224; M -0.04; V 0.005; R -0.032; N -0.077; Q -0.071; W -0.29
Q49: T 0.072; N 0.019; F -0.138; S 0.029; C -0.083; L -0.003; A 0.073; P -0.249; K -0.14; Y -0.256; G 0.103; H -0.141; V -0.034; D 0.128; I -0.205; R 0.017
H46: L -0.419; N -0.316; Q -0.331; D -0.2; T -0.219; E -0.198; W -0.427; P -0.27; M -0.17; C -0.366; G -0.165; F -0.514; A -0.186; V -0.227; R -0.189; I -0.366; K -0.117; Y -0.538
T56: I -0.218; Y -0.509; R -0.061; S 0.104; E 0.307; P 0.126; M -0.151; K 0.066; Q 0.044; F -0.642; N -0.045; H -0.025; C 0.076; D 0.188; A 0.017; L -0.462; V -0.137; W -0.605; G 0.024
G44: C -0.362; F -1.15; L -0.621; E -0.303; Q -0.841; S -0.209; T -0.26; I -0.719; W -0.616; M -0.384; V -0.234; H -0.818; P -0.523; K -0.177; N -0.285; Y -0.411; D 0.077
K53: G -0.248; I -0.111; W -0.459; V 0.137; L -0.108; Y -0.262; T -0.154; M -0.108; Q 0.026; R -0.111; S -0.11; A -0.135; H -0.167; C -0.137; D -0.16; P -0.592; E -0.029; F -0.313
Y55: S 0.245; Q -0.071; V 0.238; D 0.243; T 0.104; A -0.064; K -0.609; R -0.11; L 0.06; C 0.209; I -0.066; N -0.144; P -0.078; H -0.134; F -0.155; E 0.117; W 0.06
S45: E 0.065; D 0.163; R -0.159; M -0.269; I -0.394; L -0.163; H -0.291; W -0.287; N -0.13; G 0.099; Y -0.605; C 0.06; P -0.043; K 0.031; T 0.098; Q -0.121
H50: P -0.463; N -0.493; L -0.622; C -0.301; V -0.686; I -0.524; E -0.516; G -0.493; F -0.755; D -0.411; M -0.503; K -0.438; W -0.624; A -0.543; Q -0.509; Y -0.527

Variants of: B2
Assay: as above
Conditions: Homo sapiens

Abundance fitness of substitutions, site by site:
K1: N 0.11; L -0.666; C -0.286; A -0.671; D -0.268; G -0.47; M -0.835; I 0.021
